± gives the uncertainty stated by the source.

The data set is described as follows: amyloid nucleation score (Sup35N fusion, yeast selection) (log enrichment); library NNK2; higher = more nucleation; inactive = no reads after selection. An outline of the steps: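 Libraries of peptides of 20 random codons fused to Sup35N were expressed in psi-negative yeast and induced 24 hours with 100 μM copper sulfate. Selection was 7 days at 30°C on medium lacking adenine and uracil, and plasmid inserts were Illumina-sequenced before and after selection. Nucleation score is the DiMSum log enrichment of output over input reads, centred on the mode score of non-aggregating sequences, and sequences with under 100 input reads were left out.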
For the substance YVENTGASCFGAYK, the amyloid nucleation score came to 2.25 ± 0.11.

With VSASFEFRFSSGKWACLWRG, the amyloid nucleation score came to 4.31 ± 0.057.

Substance VQDQNRREAEVSSKGGTCSW had an amyloid nucleation score of -0.42 ± 0.35.

MLFLMGPVWTCFKICNSLLT gave an amyloid nucleation score of 0.333 ± 0.23.

Turning to FDGHLINTFPRADASIAEDN, the amyloid nucleation score was -0.454 ± 0.41.

In turn, SDGARLWR came in with an amyloid nucleation score of 0.097 ± 1.1.

FYTTRMYLVFSYFV showed an amyloid nucleation score of 3.29 ± 0.064.

Take TYSFVSLTYDSVTVFALTRC: the amyloid nucleation score is -0.326 ± 0.49.

NPFYYTGLTIPCFVYHRIKS registered an amyloid nucleation score of -0.508 ± 0.31.

Consider VFLTGCIPR, for which the amyloid nucleation score was 0.052 ± 0.37.

GSFMYSREVRLRYALARSFE registered an amyloid nucleation score of -0.545 ± 0.41.

Take RHCDLQSRLPSTWYLVRYPC: the amyloid nucleation score was found to be 0.885 ± 0.74.

For LYIALIFSISHGWCIAFRLT, the amyloid nucleation score is -0.214 ± 1.1.

KWIMWLDRYPDTSPCILYAQ displayed an amyloid nucleation score of 4.42 ± 0.055.

IYLSTCTYF registered an amyloid nucleation score of 0.155 ± 0.49.

In the case of NCQRVWYCWVALSLCETCID, the amyloid nucleation score came out at 5.168 ± 0.047.

MLNNRLNPLFARESGELLGA yielded an amyloid nucleation score of 0.871 ± 0.15.

Take AVSYVDILAFGLMFQKSLGK: the amyloid nucleation score was found to be 5.74 ± 0.063.

Regarding DIPLSSAKAYI, the amyloid nucleation score came out at 0.443 ± 0.8.

Substance RFNGN gave an amyloid nucleation score of -0.541 ± 1.1.

The substance RSHMSRLIVDFNTG came in with an amyloid nucleation score of 0.474 ± 0.3.

For the substance CILARWRYRRLHTSGLWASK, the amyloid nucleation score worked out at 0.9 ± 0.43.

On to GTLWLGDAGRAEN, for which the amyloid nucleation score came out at 0.589 ± 0.39.

In the case of NFNVQKIFNGDCDLVWRGFV, the amyloid nucleation score is -1.31 ± 0.76.

The substance ITACCRSR displayed an amyloid nucleation score of 3.02 ± 0.062.

Turning to LVVLLMRWSLPLNVESGMF, the amyloid nucleation score was -0.105 ± 1.1.

Substance GWSYNLSETLKQSVESVLTS came in with an amyloid nucleation score of 1.42 ± 0.44.

In the case of YISIPDVCLLHSIPQSRASI, the amyloid nucleation score result is “inactive”.

AWYKFIITMPFIFKSDITST yielded an amyloid nucleation score of -0.454 ± 0.54.

As for LKRNMWFLYRGTFARSYYAN, the amyloid nucleation score is -1.03 ± 0.55.

Substance HLLIRGVMSTKNRCSLLVIG displayed an amyloid nucleation score of -0.582 ± 0.44.

On to CLYRRLYKLALNMEIIILRY, for which the amyloid nucleation score result was “inactive”.

In the case of WPLRL, the amyloid nucleation score is 0.348 ± 0.31.

YCMFFCGCVTDPECNVPSDM: the amyloid nucleation score came out at 3.49 ± 0.1.

In the case of MGCYFSSLSTTHKGAVDVQL, the amyloid nucleation score was determined as 0.13 ± 0.24.

On to PLCFLVMGHGTRCVCRWNTG, for which the amyloid nucleation score is -0.464 ± 0.63.

Turning to LLFINGHAMTGAVYTITKLT, the amyloid nucleation score was -0.302 ± 0.36.

Turning to YDLGLKFNSHLATWGGFYHW, the amyloid nucleation score was -0.746 ± 0.76.

Substance LRQCKGLRVLLPTGWSYKCE came in with an amyloid nucleation score of 1.67 ± 0.58.

In turn, VQSTRIISCVLCLGDWLEDY came in with an amyloid nucleation score of 10.19 ± 0.022.

The substance VCLFLSNQRMWYVEFNTC had an amyloid nucleation score of -0.549 ± 1.

For WSITGG, the amyloid nucleation score was found to be 0.477 ± 0.66.

FLCVYDFVVRNIKGIVLRLH: the amyloid nucleation score was found to be 0.294 ± 0.8.

Substance VVCYLRIYRRILYSGIKKWP yielded an amyloid nucleation score of 3.71 ± 0.073.

As to KNSCSMYVMMCGSQVLGLVS, the amyloid nucleation score came to 7.75 ± 0.084.

SVINYVFMGDHPYHNVIFRF had an amyloid nucleation score of 7.576 ± 0.051.

As to MGFSRTLYIRKDIFLFVLHL, the amyloid nucleation score was -0.759 ± 0.64.

With VSDNFTYVLVYESGTGFTVS, the amyloid nucleation score entry was “inactive”.

The substance YSSADGPDSDMCRSVLKLVI returned an amyloid nucleation score of 0.287 ± 0.25.

As for CSHPFDYVQTILRTVTLFLI, the amyloid nucleation score is -0.114 ± 0.63.

Regarding TCGYGLSWLSGSPSMIMWMW, the amyloid nucleation score stood at 0.009 ± 0.63.

Substance TGGTVMRVR showed an amyloid nucleation score of 0.297 ± 0.29.

Turning to YSFYAGFVNYIKVWNNRG, the amyloid nucleation score came out at 4.23 ± 0.05.

With YSCMVFSLGRVMELSGHMFG, the amyloid nucleation score entry is “inactive”.

RVNCSFTDFVDVVIWKGRGN came in with an amyloid nucleation score of 5.07 ± 0.089.

The substance TRTLRDGVHVGEPLAVYWCC came in with an amyloid nucleation score of 9.477 ± 0.028.

The values above are taken from the supplement of paper PMC12042874.
